The text below walks through data of article PMC5074368.

Changes are numbered by the printed parent chain. Names may count otherwise. Bounds are passed on as bounds.

The target in experiment [1] is F-actin (cellular actin filaments of RPE cells) (human (endogenous in RPE cells)) (UniProt P60709). The experiment is described as follows: co-sedimentation; actin pelleting assay: homogenate of RPE cells expressing GFP-myosin VI constructs in F-actin stabilisation buffer (50 mM PIPES pH 6.9, 50 mM NaCl, mild detergents), 100 000 x g, 1 h, 37°C; quantitative immunoblotting, pellet/supernatant normalised to endogenous myosin VI; the pellet also holds cellular membranes. A general note: Immunoblotting shows a protein as a band on a membrane.

Experiment [2] concerns the target Dab2 in the prey vector pVP16 (UniProt P98082). Nature of the experiment: mammalian two-hybrid assay. The following applies: parent: est. 100, read off a plot.
The target of experiment [3] is TOM1 in the prey vector pVP16 (UniProt O60784). Nature of the experiment: mammalian two-hybrid assay. The conditions noted are these: parent: est. 100, read off a plot.
The target of experiment [4] is NDP52 in the prey vector pVP16 (UniProt Q13137). Nature of the experiment: mammalian two-hybrid assay. The following applies: parent: est. 100, read off a plot.
Experiment [5] concerns the target GIPC in the prey vector pVP16 (UniProt O14908). The experiment is described as follows: mammalian two-hybrid assay. The following applies: parent: est. 100, read off a plot.
Experiment [6] addresses LMTK2 in the prey vector pVP16 (UniProt Q8IWU2). The experiment is described as follows: mammalian two-hybrid assay. The following applies: n = 4; parent: est. 100; read off a plot.
In experiment [7] the target is optineurin in the prey vector pVP16 (UniProt Q96CV9). Nature of the experiment: mammalian two-hybrid assay. The conditions noted are these: n = 4; parent: est. 100; read off a plot.
For experiment [8], the target named is F-actin (cellular actin filaments of RPE cells), P60709. The experiment is described as follows: cell fractionation into supernatant and F-actin-enriched pellet, quantitative immunoblotting. The conditions noted are these: chain shown with the change, n = 3, parent: est. 1.3, read off a plot.

As to “GFP-tagged full-length myosin VI-NI RRL–AAA (from UniProt Q9UM54-1 1-1285) (natural protein)”, the fold increase of the pellet/supernatant ratio against WT myosin VI in experiment [1] was over 5 fold.
On to “GFP-tagged full-length myosin VI-NI WWY–WLY (from UniProt Q9UM54-1 1-1285) (natural protein)”, for which the fold increase of the pellet/supernatant ratio against WT myosin VI in experiment [1] is 3 fold.
For “Myosin VI globular tail (amino acids 1036–1294), wild type, in the bait vector pM E1251A”, the figures for the percent of parent (% wildtype control) in experiment [2] (n = 5) and in experiment [3] (n = 3) were 66 and 73, respectively.
As to “Myosin VI globular tail (amino acids 1036–1294), wild type, in the bait vector pM E1254A”, the percent of parent (% wildtype control) in experiment [2] (n = 5) is 88; in experiment [3] (n = 3), 87.
The matching figures for “Myosin VI globular tail (amino acids 1036–1294), wild type, in the bait vector pM I1252A”: 260 and 110.
Consider “Myosin VI globular tail (amino acids 1036–1294), wild type, in the bait vector pM L1109A”, for which the values for the percent of parent (% wildtype control) in experiment [4] (n = 3) and in experiment [5] (n = 3) were 100 and 32, respectively.
The matching figures for “Myosin VI globular tail (amino acids 1036–1294), wild type, in the bait vector pM R1107A”: 76 and 69.
The matching figures for “Myosin VI globular tail (amino acids 1036–1294), wild type, in the bait vector pM R1108A”: 16 and 2.
For “Myosin VI globular tail (amino acids 1036–1294), wild type, in the bait vector pM R1255A”, the percent of parent (% wildtype control) was determined as 60 in experiment [2] (n = 5) and 99 in experiment [3] (n = 3).
In the case of “Myosin VI globular tail (amino acids 1036–1294), wild type, in the bait vector pM W1253A”, the percent of parent (% wildtype control) in experiment [2] (n = 4) stood at 1; in experiment [2] (n = 5), 1; in experiment [6], 0; in experiment [4] (n = 4), 71; in experiment [7], 120; in experiment [3] (n = 3), 2. Besides, the percent of parent (% wildtype control) in experiment [3] (n = 4) was 2; in experiment [5] (n = 4), 59.

B1: GFP-tagged full-length myosin VI-NI, wild type, Q9UM54-1 W1253A (protein)
chain: MEDGKPVWAPHPTDGFQMGNIVDIGPDSLTIEPLNQKGKTFLALINQVFPAEEDSKKDVEDNCSLMYLNEATLLHNIKVRYSKDRIYTYVANILIAVNPYFDIPKIYSSEAIKSYQGKSLGTRPPHVFAIADKAFRDMKVLKMSQSIIVSGESGAGKTENTKFVLRYLTESYGTGQDIDDRIVEANPLLEAFGNAKTVRNNNSSRFGKFVEIHFNEKSSVVGGFVSHYLLEKSRICVQGKEERNYHIFYRLCAGASEDIREKLHLSSPDNFRYLNRGCTRYFANKETDKQILQNRKSPEYLKAGSMKDPLLDDHGDFIRMCTAMKKIGLDDEEKLDLFRVVAGVLHLGNIDFEEAGSTSGGCNLKNKSAQSLEYCAELLGLDQDDLRVSLTTRVMLTTAGGTKGTVIKVPLKVEQANNARDALAKTVYSHLFDHVVNRVNQCFPFETSSYFIGVLDIAGFEYFEHNSFEQFCINYCNEKLQQFFNERILKEEQELYQKEGLGVNEVHYVDNQDCIDLIEAKLVGILDILDEENRLPQPSDQHFTSAVHQKHKDHFRLTIPRKSKLAVHRNIRDDEGFIIRHFAGAVCYETTQFVEKNNDALHMSLESLICESRDKFIRELFESSTNNNKDTKQKAGKLSFISVGNKFKTQLNLLLDKLRSTGASFIRCIKPNLKMTSHHFEGAQILSQLQCSGMVSVLDLMQGGYPSRASFHELYNMYKKYMPDKLARLDPRLFCKALFKALGLNENDYKFGLTKVFFRPGKFAEFDQIMKSDPDHLAELVKRVNHWLTCSRWKKVQWCSLSVIKLKNKIKYRAEACIKMQKTIRMWLCKRRHKPRIDGLVKVGTLKKRLDKFNEVVSVLKDGKPEMNKQIKNLEISIDTLMAKIKSTMMTQEQIQKEYDALVKSSEELLSALQKKKQQEEEAERLRRIQEEMEKERKRREEDEKRRRKEEEERRMKLEMEAKRKQEEEERKKREDDEKRIQAEVEAQLARQKEEESQQQAVLEQERRDRELALRIAQSEAELISDEAQADLALRRNDGTRPKMTPEQMAKEMSEFLSRGPAVLATKAAAGTKKYDLSKWKYAELRDTINTSCDIELLAACREEFHRRLKVYHAWKSKNKKRNTETEQRAPKSVTDYDFAPFLNNSPQQNPAAQIPARQREIEMNRQQRFFRIPFIRPADQYKDPQSKKKGWWYAHFDGPWIARQMELHPDKPPILLVAGKDDMEMCELNLEETGLTRKRGAEILPRQFEEIAERCGGIQYLQNAIESRQARPTYATAMLQSLLK
Regarding B1, in experiment [8], the other: pellet:supernatant (P:S) ratio is 2.2.

B2: GFP-tagged full-length myosin VI-NI, wild type, Q9UM54-1 E1251A (protein)
chain: B1 chain with E1251A, A1253W
As for B2, the other: pellet:supernatant (P:S) ratio in experiment [8] amounted to 1.2.

B3: GFP-tagged full-length myosin VI-NI, wild type, Q9UM54-1 I1252A (protein)
chain: B1 chain with I1252A, A1253W
Regarding B3, in experiment [8], the other: pellet:supernatant (P:S) ratio was 1.

B4: GFP-tagged full-length myosin VI-NI, wild type, Q9UM54-1 E1254A (protein)
chain: B1 chain with A1253W, E1254A
For B4, in experiment [8], the other: pellet:supernatant (P:S) ratio is 0.97.

B5: GFP-tagged full-length myosin VI-NI, wild type, Q9UM54-1 R1255A (protein)
chain: B1 chain with A1253W, R1255A
As to B5, the other: pellet:supernatant (P:S) ratio in experiment [8] is 1.2.
